Source: US20250243261A1

Molecular target: full-length Ebola GP on pseudotyped lentivirus (Zaire ebolavirus) (UniProt Q05320)
Assay: cell-based or functional assay

Row | Binder | Ebola GP pseudotyped lentivirus IC50 [nM]
1 | mAb114 VH D42G-A68T-S79Y IgG (antibody, V domains shown) VH: EVQLVESGGGLIQPGGSLRLSCAASGFALRMYDMHWVRQTIGKRLEWVSAVGPSGDTYYADSVKGRFTVSRENAKNSLYLQMNSLTAGDTAIYYCVRSDRGVAGLFDSWGQGILVTVSS VL: DIQMTQSPSSLSASVGDRITITCRASQAFDNYVAWYQQRPGKVPKLLISAASALHAGVPSRFSGSGSGTHFTLTISSLQPEDVATYYCQNYNSAPLTFGGGTKVEIK | 1.2
2 | mAb114 VH I41P-D42G-A68T-S79Y-I113T IgG (antibody, V domains shown) VH: EVQLVESGGGLIQPGGSLRLSCAASGFALRMYDMHWVRQTPGKRLEWVSAVGPSGDTYYADSVKGRFTVSRENAKNSLYLQMNSLTAGDTAIYYCVRSDRGVAGLFDSWGQGTLVTVSS VL: DIQMTQSPSSLSASVGDRITITCRASQAFDNYVAWYQQRPGKVPKLLISAASALHAGVPSRFSGSGSGTHFTLTISSLQPEDVATYYCQNYNSAPLTFGGGTKVEIK | 1.2
3 | mAb114 VH A68T-E72D-S79Y-I113T / VL V43A IgG (antibody, V domains shown) VH: EVQLVESGGGLIQPGGSLRLSCAASGFALRMYDMHWVRQTIDKRLEWVSAVGPSGDTYYADSVKGRFTVSRDNAKNSLYLQMNSLTAGDTAIYYCVRSDRGVAGLFDSWGQGTLVTVSS VL: DIQMTQSPSSLSASVGDRITITCRASQAFDNYVAWYQQRPGKAPKLLISAASALHAGVPSRFSGSGSGTHFTLTISSLQPEDVATYYCQNYNSAPLTFGGGTKVEIK | 1.2
4 | mAb114 VH A68T-I113T / VL V43A IgG (antibody, V domains shown) VH: EVQLVESGGGLIQPGGSLRLSCAASGFALRMYDMHWVRQTIDKRLEWVSAVGPSGDTYYADSVKGRFTVSRENAKNSLSLQMNSLTAGDTAIYYCVRSDRGVAGLFDSWGQGTLVTVSS VL: DIQMTQSPSSLSASVGDRITITCRASQAFDNYVAWYQQRPGKAPKLLISAASALHAGVPSRFSGSGSGTHFTLTISSLQPEDVATYYCQNYNSAPLTFGGGTKVEIK | 1.1
5 | mAb114 VH I41P-D42G-A68T-S79Y-I113T / VL V43A IgG (antibody, V domains shown) VH: EVQLVESGGGLIQPGGSLRLSCAASGFALRMYDMHWVRQTPGKRLEWVSAVGPSGDTYYADSVKGRFTVSRENAKNSLYLQMNSLTAGDTAIYYCVRSDRGVAGLFDSWGQGTLVTVSS VL: DIQMTQSPSSLSASVGDRITITCRASQAFDNYVAWYQQRPGKAPKLLISAASALHAGVPSRFSGSGSGTHFTLTISSLQPEDVATYYCQNYNSAPLTFGGGTKVEIK | 1

Molecular target: HA H4 Hubei, A/swine/Hubei/06/2009(H4N1) (Influenza A virus)
Assay: not given

Row | Binder | Kd [nM]
6 | MEDI8852 UCA VH V65P/VL G95P IgG (antibody, V domains shown) VH: QVQLQQSGPGLVKPSQTLSLTCAISGDSVSSNSAAWNWIRQSPSRGLEWLGRTYYRSKWYNDYAPSVKSRITINPDTSKNQFSLQLNSVTPEDTAVYYCARGGHITIFGVNIDAFDIWGQGTMVTVSS VL: DIQMTQSPSSLSASVGDRVTITCRASQSISSYLNWYQQKPGKAPKLLIYAASSLQSGVPSRFSGSGSGTDFTLTISSLQPEDFATYYCQQSRTFPQGTKVEIK | 100
